In patent publication US9096832B2, “Differentiation of human embryonic stem cells” (LifeScan, Inc., priority 2007, dated 2015):

What was measured:
[1] = test system: H9P55 cells; test: Definitive endoderm on human fibronectin or […] (FACS, real-time PCR); assay type: cell-based; details: fibronectin vs MATRIGEL coated plates
Method: H9P55 cells were grown and differentiated on human fibronectin or regular growth factor […]™ (BD Biosciences). 1 ml of DMEM/F12 (Invitrogen/GIBCO) containing 1 ug/ml of human fibronectin (R&D systems, MN) was added to each well of 6 well tissue culture treated dish. Alternatively, regular growth factor […]™ was diluted 1:10 in DMEM/F12 and 1 ml of diluted […]™ was added to each well of 6 well tissue culture treated dish. Cells were passed with collagenase. […] Real-time PCR results (FIG. 39) confirm that formation of definitive endoderm was equivalent on fibronectin and […]™ coated plates.

[2] = test system: H1P55 ES cells; test: Definitive endoderm on […]: role of Wnt1 (real-time PCR); assay type: cell-based, human; details: 20 ng/ml Wnt1 in the presence of 100 ng/ml AA
Method: The following combinations of WNT1+AA were tested:
a) 20 ng/ml of WNT1+100 ng/ml AA in 0.5% FBS+DM-F12 for days 1-2 followed by 2% FBS+DM-F12+100 ng/ml AA for day three, b) 20 ng/ml of WNT1+100 ng/ml AA in 0.5% FBS+DM-F12 for days 1-2 followed by 2% FBS+DM-F12+100 ng/ml AA for days 3-5, c) 10 ng/ml of WNT1+100 ng/ml AA in 0.5% FBS+DM-F12 for days 1-2 followed by 2% FBS+DMF12+100 ng/ml AA for day three, d) 10 ng/ml of WNT1+100 ng/ml AA in 0.5% FBS+DM-F12 for days 1-2 followed by 2% FBS+DM-F12+100 ng/ml AA for days 3-5, e) 20 ng/ml of WNT1+100 ng/ml AA in 0.5% FBS+DM-F12 for days 1-2 followed by 2% FBS+DM-F12+100 ng/ml AA+20 ng/ml of WNT1 for day three, f) 20 ng/ml of WNT1+100 ng/ml AA in 0.5% FBS+DM-F12 for days 1-2 followed by 2% FBS+DM-F12+100 ng/ml AA+20 ng/ml of WNT1 for days 3-5.

[3] = test system: H9 cells; test: Definitive endoderm after treatment with Wnt inhibitor DKK-1 (real-time PCR); assay type: cell-based, human; details: 100 ng/ml DKK1 with 20 ng/ml Wnt3a and 100 ng/ml activin A
Method: To determine if the addition of Wnt-3a was causing the increase in differentiation, an inhibitor of Wnt-3 signaling was added to the cultures. […] H9 cells were cultured on plates coated with Growth Factor Reduced […] at a 1:30 dilution. The plates were coated with […] for 1 hr at room temperature.
At day 5, the cultures were analyzed by real time PCR for SOX-17, SOX-7, Alpha-fetal protein (AFP), CXCR4, Brychyury (Bry), gooscecoid (GSC), HNF-3 beta, GATA4, hTERT and Oct4. AFP and SOX-7 are regarded as visceral endoderm markers while GATA4, HNF-3beta and SOX-17 represent definite endoderm markers and GSC, Bry, and CXCR4 represent markers of primitive streak. hTERT and Oct-4 are markers for self renewal and pluripotency respectively.

[4] = test system: H9P53 embryonic stem cells; test: Definitive endoderm on […]: combination of Wnt-3a, GSK-3B inhibitor, BMP-4; assay type: cell-based, human; details: 25 ng/ml BMP-4 added to the DE protocol
Source text: Results are expressed as fold increase over untreated cells. […] Results are expressed as fold increase over untreated cells.

For fibronectin, the “formation of definitive endoderm (real-time PCR)” value [1] was “equivalent”.

B1: Wnt1: WNT-1 (PeproTech, NJ, Catalogue#120-17) (protein, UniProt P04628 28-370, looked up)
Proto-oncogene Wnt-1: ANSSGRWWGIVNVASSTNLLTDSKSLQLVLEPSLQLLSRKQRRLIRQNPGILHSVSGGLQSAVRECKWQFRNRRWNCPTAPGPHLFGKIVNRGCRETAFIFAITSAGVTHSVARSCSEGSIESCTCDYRRRGPGGPDWHWGGCSDNIDFGRLFGREFVDSGEKGRDLRFLMNLHNNEAGRTTVFSEMRQECKCHGMSGSCTVRTCWMRLPTLRAVGDVLRDRFDGASRVLYGNRGSNRASRAELLRLEPEDPAHKPPSPHDLVYFEKSPNFCTYSGRLGTAGTAGRACNSSSPALDGCELLCCGRGHRTRTQRVTERCNCTFHWCCHVSCRNCTHTRVLHECL
With B1 the “definitive endoderm markers (Bry, CXCR4, GSC, SOX17, HNF-3B, and GATA-4)” value [2] was “significant up regulation”.

B2: DKK1: Wnt Inhibitor DKK-1 (Dikkopf-1) (protein, UniProt O94907 32-266, looked up)
Dickkopf-related protein 1: TLNSVLNSNAIKNLPPPLGGAAGHPGSAVSAAPGILYPGGNKYQTIDNYQPYPCAEDEECGTDEYCASPTRGGDAGVQICLACRKRRKRCMRHAMCCPGNYCKNGICVSSDQNHFRGEIEETITESFGNDHSTLDGYSRRTTLSSKMYHTKGQEGSVCLRSSDCASGLCCARHFWSKICKPVLKEGQVCTKHRRKGSHGLEIFQRCYCGEGLSCRIQKDHHQASNSSRLHTCQRH
For B2, the “expression level of differentiation markers (CXCR4, GATA4, HNF-3beta, SOX17, goosecoid)” value [3] was “dramatically decrease to levels similar to that of untreated cells”.

B3: BMP-4: BMP-4 (Catalog#314-BP-010, R&D Systems, MN) (protein, UniProt P12644 293-408, looked up)
Bone morphogenetic protein 4: SPKHHSQRARKKNKNCRRHSLYVDFSDVGWNDWIVAPPGYQAFYCHGDCPFPLADHLNSTNHAIVQTLVNSVNSSIPKACCVPTELSAISMLYLDEYDKVVLKNYQEMVVEGCGCR
For B3, the “mesoderm marker BRY” value [4] was “induce formation of mesoderm marker BRY”.
